Assay results taken from article PMC12148432, “Discovery and biochemical characterization of the D-aspartyl endopeptidase activity of the serine protease LACTB [drawing 1]” (The Journal of Biological Chemistry, 2025).

Substrate: Cc1cc(=O)oc2cc(NC(=O)[C@@H](CC(=O)O)NC(=O)CCC(=O)O)ccc12
Experiment: AMC fluorescence, kinetic plate-reader assay, initial rates
Assay type: biochemical, Homo sapiens
Conditions: pH 8.0, 30 °C, Tris-HCl, 150 mM NaCl

B1: 6His-SUMO1-hLACTB (97–547) (hLACTB WT) (Homo sapiens) (protein)
chain: APPCSRCFARAIESSRDLLHRIKDEVGAPGIVVGVSVDGKEVWSEGLGYADVENRVPCKPETVMRIASISKSLTMVALAKLWEAGKLDLDIPVQHYVPEFPEKEYEGEKVSVTTRLLISHLSGIRHYEKDIKKVKEEKAYKALKMMKENVAFEQEKEGKSNEKNDFTKFKTEQENEAKCRNSKPGKKKNDFEQGELYLREKFENSIESLRLFKNDPLFFKPGSQFLYSTFGYTLLAAIVERASGCKYLDYMQKIFHDLDMLTTVQEENEPVIYNRARFYVYNKKKRLVNTPYVDNSYKWAGGGFLSTVGDLLKFGNAMLYGYQVGLFKNSNENLLPGYLKPETMVMMWTPVPNTEMSWDKEGKYAMAWGVVERKQTYGSCRKQRHYASHTGGAVGASSVLLVLPEELDTETINNKVPPRGIIVSIICNMQSVGLNSTALKIALEFDKDRSD
notes: residues 97-547 (putative catalytic domain), N-terminal 6His-SUMO1 fusion kept, expressed in Escherichia coli, Ni-NTA and size-exclusion purified
B1 gave a Km of 25.3 ± 2.7 µM and a kcat of 6.02 ± 0.12 s⁻¹.
